Experiment: 15N NMR relaxation (T1, T2, NOE) of Sla1 SH3#1&2
Assay type: physicochemical, Saccharomyces cerevisiae
Parameters: Time Constant (T2) / T1 / T2: unit not given here
Details: for R1/s: 15N relaxation rate; for NOE / T1 / T2: 15N relaxation; for Time Constant (T2): fit A exp(-Bx), 11 peaks
Excerpt: Fig. 2 A structural analysis of Sla1 SH3 domains 1 and 2. A The predicted interface between the first two SH3 domains of Sla1 as modelled using Alphafold. SH3#1 is shown in light green and SH3#2 is shown in cyan. Residues predicted to form hydrogen bonds using the Pymol search function are shown as sticks and labelled with their respective residue numbers. Dashed black lines indicate interactions. The red line in the structure indicates residues 67–70 in the hinge between the SH3 domains; the magenta loop indicates residues 52–54. B Assignment of the ^1H ^15N HSQC spectrum of Sla1 SH3 domains 1 and 2. C^15N relaxation data for Sla1 SH3#1&2. The linker between domains is approximately residues 67–70 (shown with red line under the trace and in A), and the mobile region 52-54 is part of a loop (shown with magenta line below the trace and in A). The correlation time of 8.5 ns (derived from the trimmed ^15N T1/T2 ratio), matches that calculated for a rigid two-domain structure rather than two independent domains (8.8 and 4.5 ns, respectively).
To investigate further, we purified ^15N, ^13C labelled Sla1 SH3#1&2 and analysed using NMR. A full assignment was obtained (Fig. 2B) which confirmed the Alphafold structure. An important aspect when considering the function of tandem domains is the level of rigidity or flexibility between the domains. […] NMR was used to determine relaxation parameters (^15N R1, R2 and NOE) of ^15N-labelled SH3#1-2 (Fig. 2B). […] The structural unity of the two-domain structure explains why attempts to study SH3#2 alone were unsuccessful.
Experiments were carried out on Bruker DRX-600 and DRX-800 spectrometers fitted with cryoprobes. SH3 domains 1 and 2 were assigned using a standard set of HNCA/HN(CO)CA, HNCO/HN(CA)CO and CBCAHN/CBCA(CO)HN 3D spectra. The assignment has been deposited at BioMagResBank, with code 52650. SH3 domain-3 was assigned by comparison to data provided by Prof Ishwar Radhakrishnan (Northwestern University) for the same domain although with different residues at both ends. Titrations were conducted with three peptides (GenScript Biotech, UK) comprising the three PP motifs (Fig. 3A): p1 […] (residues 318–339); p2 […] (residues 330–361); and p3 […] (residues 375–397). Peptide solutions were prepared as concentrated stock solutions in the same buffer at the same pH and added stepwise to protein solutions. Shift changes were analysed by picking peaks in Felix (Felix NMR Inc, San Diego, CA), which were downloaded to text files and for determining Kd were analysed using Levenberg-Marquardt least squares fitting to the standard quadratic equation[63]. Analysis of the ^15N relaxation data was carried using CCPN Analysis[64].

[1] = Average over the listed residues

B1: Sla1 SH3#1-2: SH3#1-2 (aa 5-131), tandem domains; sequence in b253 (protein)
chain: LGIYRAVYAYEPQTPEELAIQEDDLLYLLQKSDIDDWWTVKKRVIGSDSEEPVGLVPSTYIEEAPVLKKVRAIYDYEQVQNADEELTFHENDVFDVFDDKDADWLLVKSTVSNEFGFIPGNYVEPEN
modifications: 15N-labelled (NMR only); left off: GST, end not stated, cleaved
Res No 120
  R1/s: 1.466 s⁻¹
  NOE: 0.82
  T1: 682.123
  T2: 81.3349
Res No 121
  R1/s: 1.493 s⁻¹
  NOE: 0.78
  T1: 669.609
  T2: 97.0012
Res No 122
  R1/s: 1.379 s⁻¹
  NOE: 0.83
  T1: 725.391
  T2: 86.8543
Res No 124
  R1/s: 1.37 s⁻¹
  NOE: 0.77
  T1: 730.172
  T2: 96.3447
Res No 125
  R1/s: 1.488 s⁻¹
  NOE: 0.80
  T1: 671.872
  T2: 93.7171
Res No 126
  R1/s: 1.238 s⁻¹
  NOE: 0.79
  T1: 807.954
  T2: 78.1493
Res No 127
  R1/s: 1.493 s⁻¹
  NOE: 0.85
  T1: 669.869
  T2: 96.0414
Res No 128
  R1/s: 1.443 s⁻¹
  NOE: 0.81
  T1: 693.218
  T2: 98.2071
Res No 130
  R1/s: 1.206 s⁻¹
  NOE: 0.63
  T1: 829.235
  T2: 96.7653
Res No 131
  R1/s: 1.364 s⁻¹
  NOE: 0.25
  T1: 733.153
  T2: 129.47
[1]
  T1, average: 736.968 ms
  T1/T2, average: 7.904
Average over the listed residues, unit of column T2 Error not given
  T2, average: 95.1164 ms
If S2 ~ 0.9, from T1/T2
  tm: ~8.5 ns
Derived from trimmed 15N T1/T2 ratio
  correlation time: 8.5 ns
Residue 2, 2LeuH/2LeuN
  Time Constant (T2): 74.2339
Residue 3, 3GlyH/3GlyN
  Time Constant (T2): 77.6134
Residue 4, 4SerH/4SerN
  Time Constant (T2): 87.959
Residue 5, 5LeuH/5LeuN
  Time Constant (T2): 78.1323
Residue 6, 6GlyH/6GlyN
  Time Constant (T2): 92.4802
Residue 7, 7IleH/7IleN
  Time Constant (T2): 92.3591
Residue 8, 8TyrH/8TyrN
  Time Constant (T2): 80.6702
Residue 9, 9ArgH/9ArgN
  Time Constant (T2): 95.265
Residue 10, 10AlaH/10AlaN
  Time Constant (T2): 80.3318
Residue 11, 11ValH/11ValN
  Time Constant (T2): 83.3796
Residue 12, 12TyrH/12TyrN
  Time Constant (T2): 98.6102
Residue 13, 13AlaH/13AlaN
  Time Constant (T2): 103.591
Residue 14, 14TyrH/14TyrN
  Time Constant (T2): 86.8853
Residue 15, 15GluH/15GluN
  Time Constant (T2): 80.7454
Residue 17, 17GlnH/17GlnN
  Time Constant (T2): 97.1227
Residue 18, 18ThrH/18ThrN
  Time Constant (T2): 94.4167
Residue 20, 20GluH/20GluN
  Time Constant (T2): 89.6372
Residue 21, 21GluH/21GluN
  Time Constant (T2): 88.1386
Residue 22, 22LeuH/22LeuN
  Time Constant (T2): 101.792
Residue 23, 23AlaH/23AlaN
  Time Constant (T2): 109.32
Residue 24, 24IleH/24IleN
  Time Constant (T2): 84.8173
Residue 25, 25GlnH/25GlnN
  Time Constant (T2): 91.5466
Residue 26, 26GluH/26GluN
  Time Constant (T2): 91.8855
Residue 27, 27AspH/27AspN
  Time Constant (T2): 90.7749
Residue 28, 28AspH/28AspN
  Time Constant (T2): 79.1318
Residue 29, 29LeuH/29LeuN
  Time Constant (T2): 102.528
Residue 30, 30LeuH/30LeuN
  Time Constant (T2): 94.1276
Residue 31, 31TyrH/31TyrN
  Time Constant (T2): 100.15
Residue 32, 32LeuH/32LeuN
  Time Constant (T2): 86.762
Residue 33, 33LeuH/33LeuN
  Time Constant (T2): 75.7339
Residue 34, 34GlnH/34GlnN
  Time Constant (T2): 87.3929
Residue 35, 35LysH/35LysN
  Time Constant (T2): 101.82
Residue 36, 36SerH/36SerN
  Time Constant (T2): 153.776
Residue 37, 37AspH/37AspN
  Time Constant (T2): 90.5854
Residue 38, 38IleH/38IleN
  Time Constant (T2): 99.0603
Residue 39, 39AspH/39AspN
  Time Constant (T2): 104.622
Residue 40, 40AspH/40AspN
  Time Constant (T2): 92.3559
Residue 41, 41TrpH/41TrpN
  Time Constant (T2): 105.38
Residue 42, 42TrpH/42TrpN
  Time Constant (T2): 87.941
Residue 43, 43ThrH/43ThrN
  Time Constant (T2): 96.7782
Residue 44, 44ValH/44ValN
  Time Constant (T2): 79.239
Residue 45, 45LysH/45LysN
  Time Constant (T2): 89.2928
Residue 46, 46LysH/46LysN
  Time Constant (T2): 79.9381
Residue 47, 47ArgH/47ArgN
  Time Constant (T2): 96.0563
Residue 48, 48ValH/48ValN
  Time Constant (T2): 80.6125
Residue 49, 49IleH/49IleN
  Time Constant (T2): 93.7827
Residue 50, 50GlyH/50GlyN
  Time Constant (T2): 115.88
Residue 51, 51SerH/51SerN
  Time Constant (T2): 86.3946
Residue 52, 52AspH/52AspN
  Time Constant (T2): 168.141
Residue 53, 53SerH/53SerN
  Time Constant (T2): 144.016
Residue 54, 54GluH/54GluN
  Time Constant (T2): 154.977
Residue 55, 55GluH/55GluN
  Time Constant (T2): 101.598
Residue 57, 57ValH/57ValN
  Time Constant (T2): 100.05
Residue 58, 58GlyH/58GlyN
  Time Constant (T2): 89.0014
Residue 59, 59LeuH/59LeuN
  Time Constant (T2): 85.278
Residue 60, 60ValH/60ValN
  Time Constant (T2): 98.7206
Residue 62, 62SerH/62SerN
  Time Constant (T2): 97.5945
Residue 63, 63ThrH/63ThrN
  Time Constant (T2): 81.7496
Residue 64, 64TyrH/64TyrN
  Time Constant (T2): 104.147
Residue 65, 65IleH/65IleN
  Time Constant (T2): 90.7515
Residue 66, 66GluH/66GluN
  Time Constant (T2): 88.572
Residue 67, 67GluH/67GluN
  Time Constant (T2): 102.479
Residue 68, 68AlaH/68AlaN
  Time Constant (T2): 84.1741
Residue 70, 70ValH/70ValN
  Time Constant (T2): 100.257
Residue 71, 71LeuH/71LeuN
  Time Constant (T2): 80.9555
Residue 72, 72LysH/72LysN
  Time Constant (T2): 97.8301
Residue 73, 73LysH/73LysN
  Time Constant (T2): 97.0107
Residue 74, 74ValH/74ValN
  Time Constant (T2): 95.1713
Residue 75, 75ArgH/75ArgN
  Time Constant (T2): 95.2306
Residue 76, 76AlaH/76AlaN
  Time Constant (T2): 79.2788
Residue 77, 77IleH/77IleN
  Time Constant (T2): 85.3516
Residue 78, 78TyrH/78TyrN
  Time Constant (T2): 77.7575
Residue 79, 79AspH/79AspN
  Time Constant (T2): 86.8514
Residue 80, 80TyrH/80TyrN
  Time Constant (T2): 102.25
Residue 81, 81GluH/81GluN
  Time Constant (T2): 91.1679
Residue 82, 82GlnH/82GlnN
  Time Constant (T2): 103.776
Residue 83, 83ValH/83ValN
  Time Constant (T2): 96.58
Residue 84, 84GlnH/84GlnN
  Time Constant (T2): 115.172
Residue 85, 85AsnH/85AsnN
  Time Constant (T2): 109.146
Residue 86, 86AlaH/86AlaN
  Time Constant (T2): 101.454
Residue 87, 87AspH/87AspN
  Time Constant (T2): 93.3182
Residue 88, 88GluH/88GluN
  Time Constant (T2): 94.5093
Residue 89, 89GluH/89GluN
  Time Constant (T2): 99.1662
Residue 90, 90LeuH/90LeuN
  Time Constant (T2): 96.3149
Residue 91, 91ThrH/91ThrN
  Time Constant (T2): 78.2582
Residue 92, 92PheH/92PheN
  Time Constant (T2): 85.0538
Residue 93, 93HisH/93HisN
  Time Constant (T2): 82.1244
Residue 94, 94GluH/94GluN
  Time Constant (T2): 97.249
Residue 95, 95AsnH/95AsnN
  Time Constant (T2): 98.0824
Residue 96, 96AspH/96AspN
  Time Constant (T2): 93.6871
Residue 97, 97ValH/97ValN
  Time Constant (T2): 100.422
Residue 98, 98PheH/98PheN
  Time Constant (T2): 79.4419
Residue 99, 99AspH/99AspN
  Time Constant (T2): 97.6801
Residue 100, 100ValH/100ValN
  Time Constant (T2): 97.751
Residue 101, 101PheH/101PheN
  Time Constant (T2): 95.7132
Residue 102, 102AspH/102AspN
  Time Constant (T2): 87.4197
Residue 103, 103AspH/103AspN
  Time Constant (T2): 77.1058
Residue 104, 104LysH/104LysN
  Time Constant (T2): 88.8779
Residue 105, 105AspH/105AspN
  Time Constant (T2): 102.407
Residue 106, 106AlaH/106AlaN
  Time Constant (T2): 137.978
Residue 107, 107AspH/107AspN
  Time Constant (T2): 99.1634
Residue 108, 108TrpH/108TrpN
  Time Constant (T2): 105.531
Residue 109, 109LeuH/109LeuN
  Time Constant (T2): 92.4282
Residue 110, 110LeuH/110LeuN
  Time Constant (T2): 99.3469
Residue 111, 111ValH/111ValN
  Time Constant (T2): 90.5694
Residue 112, 112LysH/112LysN
  Time Constant (T2): 92.6618
Residue 113, 113SerH/113SerN
  Time Constant (T2): 88.7102
Residue 114, 114ThrH/114ThrN
  Time Constant (T2): 88.1188
Residue 115, 115ValH/115ValN
  Time Constant (T2): 99.4179
Residue 116, 116SerH/116SerN
  Time Constant (T2): 105.651
Residue 117, 117AsnH/117AsnN
  Time Constant (T2): 79.9936
Residue 118, 118GluH/118GluN
  Time Constant (T2): 87.975
Residue 119, 119PheH/119PheN
  Time Constant (T2): 95.7684
Residue 120, 120GlyH/120GlyN
  Time Constant (T2): 81.3349
Residue 121, 121PheH/121PheN
  Time Constant (T2): 97.0012
Residue 122, 122IleH/122IleN
  Time Constant (T2): 86.8543
